Measurements taken from patent US20200095278A1 (USTAV ORGANICKE CHEMIE A BIOCHEMIE AV CR V V I, published 2020).
No end group written: not given here.

T1: E. coli rhomboid protease GlpG (E. coli, UniProt P09391 1-276, limits assumed)
T1 sequence (looked up): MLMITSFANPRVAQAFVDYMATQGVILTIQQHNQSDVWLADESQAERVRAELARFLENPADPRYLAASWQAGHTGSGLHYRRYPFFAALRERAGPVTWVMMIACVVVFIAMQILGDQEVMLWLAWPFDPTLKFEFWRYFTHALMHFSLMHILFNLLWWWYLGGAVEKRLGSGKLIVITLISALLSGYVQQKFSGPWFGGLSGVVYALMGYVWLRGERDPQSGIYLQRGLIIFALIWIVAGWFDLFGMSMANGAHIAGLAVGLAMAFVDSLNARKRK

B1: Compound 9 (peptide)
peptide: Ac-RVRHA
modifications: also: C-terminal Ala as alpha-ketoamide, -CO-CO-NH-(CH2)2-Ph
notes: Structure is printed only as a drawing; Tail inferred from monoisotopic mass 810.461290, MW 810.96, and the NMR; It has the same mass as compound 5; also called Cpd No. 9
B2: Compound 11 (peptide)
peptide: Ac-RVRHA
modifications: also: C-terminal Ala as alpha-ketoamide, -CO-CO-NH-(CH2)4-Ph
notes: Structure is printed only as a drawing; Tail inferred from C39H62N14O7, MW 839.02; also called Cpd No. 11
B3: Compound 10 (peptide)
peptide: Ac-RVRHA
modifications: also: C-terminal Ala as alpha-ketoamide, -CO-CO-NH-CH2-(2,5-dimethylphenyl)
notes: Structure is printed only as a drawing; Tail inferred from C38H60N14O7, MW 824.99; also called Cpd No. 10

Tests used:
[1] = target: T1, E. coli rhomboid protease GlpG; assay: cell-based or functional assay
[2] = target: T1, E. coli rhomboid protease GlpG; assay: in vitro inhibition of rhomboid protease GlpG, as described (Ticha et al., 2017); printed as a Ki range

| Binder | IC50 (µM), measured in vitro as described (Ticha et al., 2017) [1] [µM] | Ki [2] [nM] |
| --- | --- | --- |
| Ac-RVRHA-{keto‑C(:O)NH-neopentyl} [Compound 7] | 2.15 | – |
| Ac-RVWHA-{keto‑C(:O)NH-4‑phenylbutyl} [Compound 16] | 0.77 | – |
| Ac-RVRHA-{keto‑C(:O)NH-pentyl} [Compound 8] | 1.08 | – |
| Ac-His-Ala (not fully specified (C-terminus)) [Compound 14] | 48 | – |
| Ac-RVRHA (not fully specified (C-terminus)) [Compound 3] | 5.01 | – |
| B1 | 0.34 | 10 to 100 |
| Ac-RVRHA-{keto‑C(:O)NH-1‑phenylethyl} [Compound 5] | 13.8 | – |
| Ac-RVRHA-{keto‑C(:O)NH-ethoxycarbonylmethyl} [Compound 6] | 4.24 | – |
| Ac-RVRHA-{keto‑C(:O)NH-isopropyl} [Compound 2] | 12.4 | – |
| Ac-Arg-His-Ala (not fully specified (C-terminus)) [Compound 13] | 9.05 | – |
| B2 | 0.15 | 10 to 100 |
| B3 | 0.18 | 10 to 100 |
| Ac-RVRHA-{keto‑C(:O)NH2} [Compound 1] | 203 | – |
| Ac-RVRHA-{keto‑C(:O)NH-benzyl} [Compound 4] | 7.64 | – |
